Earlier results on one substance are cited in paper PMC3413316.

In general, pKd refers to the Kd on a negative log10 scale, so that one unit is a factor of ten.

pKd: −log10 of the molar value.

Data set [1] has as its target Protein C (Homo sapiens) (UniProt P04070).
The target in data set [2] is Activated protein C (Homo sapiens) (UniProt P04070).
Activated protein C (Homo sapiens), sequence (P04070 43-197, chain 1 of 2): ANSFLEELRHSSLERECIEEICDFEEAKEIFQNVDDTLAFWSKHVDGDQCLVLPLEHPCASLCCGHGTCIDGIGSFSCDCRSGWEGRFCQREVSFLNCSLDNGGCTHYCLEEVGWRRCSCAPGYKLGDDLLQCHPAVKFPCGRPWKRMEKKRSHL
Activated protein C (Homo sapiens), sequence (P04070 212-461, chain 2 of 2): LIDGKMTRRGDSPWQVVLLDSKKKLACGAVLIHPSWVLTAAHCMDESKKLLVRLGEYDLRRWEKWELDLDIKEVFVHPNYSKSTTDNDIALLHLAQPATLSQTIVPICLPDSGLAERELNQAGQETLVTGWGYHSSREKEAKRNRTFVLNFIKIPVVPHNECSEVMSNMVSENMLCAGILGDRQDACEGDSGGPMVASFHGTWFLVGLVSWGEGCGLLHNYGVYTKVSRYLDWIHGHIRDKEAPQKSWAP

EPCR, sequence (Q9UNN8 18-210): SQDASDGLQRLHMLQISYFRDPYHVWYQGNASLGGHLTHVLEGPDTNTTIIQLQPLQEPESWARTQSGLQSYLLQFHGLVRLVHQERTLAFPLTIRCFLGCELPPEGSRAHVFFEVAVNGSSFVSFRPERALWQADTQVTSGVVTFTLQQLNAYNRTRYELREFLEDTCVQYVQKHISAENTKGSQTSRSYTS
Protein C (Homo sapiens), sequence (P04070 43-197): as the sequence (P04070 43-197, chain 1 of 2) above

As to EPCR (from UniProt Q9UNN8), the pKd in data set [1] and in data set [2] was 7.22 in each case.
